Measured values: patent US20220162320A1 (published 2022)
Each block holds one binder with its values, some of them ahead of it.

Experiments:
[1] = biological target: T1, HLA-PEPTIDE target G2: HLA-A*01:01_…, recombinant soluble complex (human, enzymatically biotinylated (BirA)); assay: BLI, antibody from 100 nM in 1:2 steps, 1:1 model; apparent KD
T1 construct: also called G2-pHLA

[2] = biological target: HLA-PEPTIDE target G10: HLA-A*01:01_…, recombinant soluble complex (human, enzymatically biotinylated (BirA)); assay: phage display, scFv ELISA on pHLA against negative control pHLAs
[3] = biological target: T2, HLA-B*35:01 (alpha chain with beta-2 microglobulin), recombinant (human); assay: conditional ligand exchange, stability ELISA
T2 construct: also called HLA complex of the conditional ligand exchange / stability ELISA

[4] = biological target: HLA-A*02:01 (alpha chain with beta-2 microglobulin), recombinant (human); assay: conditional ligand exchange, stability ELISA
[5] = biological target: T3, HLA-A*01:01_… (G2) presented on cells (human); assay: flow cytometry on pulsed K562 cells, against off target peptide [..] and unpulsed cells
T3 construct: whole, on cells

[6] = biological target: T1, HLA-PEPTIDE target G2: HLA-A*01:01_…, …; assay: BLI

B1: 4-G2(1H11)-OKT3 (bispecific antibody, human IgG1, kappa, N297Q)
chain: not shown
heavy: not shown
light: QIVLTQSPAIMSASPGEKVTMTCSASSSVSYMNWYQQKSGTSPKRWIYDTSKLASGVPAHFRGSGSGTSYSLTISGMEAEDAATYYCQQWSSNPFTFGSGTKLEINRTVAAPSVFIFPPSDEQLKSGTASVVCLLNNFYPREAKVQWKVDNALQSGNSQESVTEQDSKDSTYSLSSTLTLSKADYEKHKVYACEVTHQGLSSPVTKSFNRGEC
notes: also called format #4 (scFv/scFv-Fab): scFv G2(1H11), Fab OKT3
Kd [1]: 1.27 nM

B2: scFv G10(5C08) (scFv, V domains shown)
VH: QVQLVQSGAEVKKPGASVKVSCKASGYNFTGYYMHWVRQAPGQGLEWMGIIAPSDGSTNYAQKFQGRVTMTRDTSTSTVYMELSSLRSEDTAVYYCARETGDDAFDIWGQGTMVTVSS
VL: not shown
binding result [2]: binds

Binder: EVDPIGHVY (also called G5 peptide) [peptide EVDPIGHVY]
binding result [3]: binds

Binder: LLASSILCA (also called G7 peptide) [peptide LLASSILCA]
binding result [4]: binds

Results, then the binder that gave them:

binding result [5]: binds
binding result [6]: binds
B3: 3-G2(1H11)-hOKT3 (bispecific antibody, human IgG1, kappa, N297Q)
chain: not shown
heavy: QVQLVQSGAEVKKPGASVKVSCKASGYTFTRYTMHWVRQAPGQGLEWMGYINPSRGYTNYNQKFKDRVTLTTDKSSSTAYMELSSLRSEDTAVYYCARYYDDHYSLDYWGQGTLVTVSSASTKGPSVFPLAPSSKSTSGGTAALGCLVKDYFPEPVTVSWNSGALTSGVHTFPAVLQSSGLYSLSSVVTVPSSSLGTQTYICNVNHKPSNTKVDKRVEPKSCDKTHTCPPCPAPELLGGPSVFLFPPKPKDTLMISRTPEVTCVVVDVSHEDPEVKFNWYVDGVEVHNAKTKPREEQYQSTYRVVSVLTVLHQDWLNGKEYKCKVSNKALPAPIEKTISKAKGQPREPQVCTLPPSREEMTKNQVSLSCAVKGFYPSDIAVEWESNGQPENNYKTTPPVLDSDGSFFLVSKLTVDKSRWQQGNVFSCSVMHEALHNRFTQKSLSLSPGK
light: DIQMTQSPSSLSASVGDRVTITCSASSSVSYMNWYQQKPGKAPKRLIYDTSKLASGVPSRFSGSGSGTDFTLTISSLQPEDFATYYCQQWSSNPFTFGQGTKLEIKRTVAAPSVFIFPPSDEQLKSGTASVVCLLNNFYPREAKVQWKVDNALQSGNSQESVTEQDSKDSTYSLSSTLTLSKADYEKHKVYACEVTHQGLSSPVTKSFNRGEC
notes: also called 3-hOKT3-G2(1H11)

binding result [2]: binds
B4: scFv G10(5A08) (scFv, V domains shown)
VH: QVQLVQSGAEVKKPGSSVKVSCKASGGTFNNFAISWVRQAPGQGLEWMGGIIPIFDATNYAQKFQGRVTFTADESTSTAYMELSSLRSEDTAVYYCARGEYSSGFFFVGWFDLWGRGTQVTVSS
VL: not shown
notes: also called G10(5A8); scFv-G10-P5A08
